Experimental data taken from publication doi:10.1101/2022.05.31.494262.

Biological target: SARS-CoV-2 Nucleocapsid (N) protein, wildtype, SUMO1 modified (SARS-CoV-2 | not stated)
Assay: FRET or BRET

## SARS-CoV-2 Nucleocapsid (N) protein, wildtype, SUMO1 modified
  Kd: 460 nM
